Results taken from patent US20260001928A1 (CORTERIA PHARMACEUTICALS, priority 2022, published 2026).
One block for each binder: values may come before it. *1 amine or outer side, *2 acyl side, *3 side chain or, on linkers, in order; H or OH if unused. Where no end group is shown, it is not given here. Side-chain parts run from the residue outwards. [ ]: non-standard residue; d: D form. The star is where a group is joined. C18 diacid = O=C(O)CCCCCCCCCCCCCCCCC(=O)*; C16 diacid = O=C(O)CCCCCCCCCCCCCCC(=O)*; γGlu = O=C(O)[C@H](CCC(=O)[*:2])N[*:1]; NMeI = CC[C@H](C)[C@H](NC)C(=O)O; αMeL = CC(C)C[C@](C)(N)C(=O)O; Pentanoyl = CCCCC(=O)*; AEEA = NCCOCCOCC(=O)O; Aib = CC(C)(N)C(=O)O

How the values were obtained:
CRF1R receptor = target: T1, CRF1R receptor (UniProt P34998 24-415, limits assumed); test: cell-based or functional assay
T1 sequence (looked up): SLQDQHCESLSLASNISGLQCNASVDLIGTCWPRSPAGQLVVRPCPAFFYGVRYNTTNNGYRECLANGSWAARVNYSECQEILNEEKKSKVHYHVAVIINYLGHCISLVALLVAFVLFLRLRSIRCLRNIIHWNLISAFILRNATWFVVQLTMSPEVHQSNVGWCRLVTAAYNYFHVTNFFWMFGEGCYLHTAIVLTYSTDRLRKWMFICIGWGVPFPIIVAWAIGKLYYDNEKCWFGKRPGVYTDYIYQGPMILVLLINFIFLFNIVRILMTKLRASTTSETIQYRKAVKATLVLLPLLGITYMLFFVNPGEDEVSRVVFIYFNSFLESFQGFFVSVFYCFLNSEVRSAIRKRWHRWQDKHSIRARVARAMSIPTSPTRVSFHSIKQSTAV

[1] = target: human corticotropin-releasing factor 2a (CRF2a receptor) (human), Q13324; test: cell-based or functional assay
Sequence of human corticotropin-releasing factor 2a (CRF2a receptor) (human), Q13324 (Q13324 20-411): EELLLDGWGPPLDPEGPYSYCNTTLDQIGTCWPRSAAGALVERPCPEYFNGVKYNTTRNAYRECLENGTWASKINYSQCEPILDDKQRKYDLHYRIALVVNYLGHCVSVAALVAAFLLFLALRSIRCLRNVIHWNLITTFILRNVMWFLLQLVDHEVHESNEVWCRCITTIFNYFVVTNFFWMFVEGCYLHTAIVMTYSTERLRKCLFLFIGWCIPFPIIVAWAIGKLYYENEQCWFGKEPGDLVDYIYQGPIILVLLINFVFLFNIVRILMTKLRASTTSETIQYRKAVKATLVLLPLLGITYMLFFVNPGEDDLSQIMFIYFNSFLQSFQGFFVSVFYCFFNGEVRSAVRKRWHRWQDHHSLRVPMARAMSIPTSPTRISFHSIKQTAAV

B1: SEQ ID NO 2 (peptide)
peptide: Ac-IVLSLD[dV]PIKLK([γGlu-C16 diacid])QILLKQERQKKQREQAEKNKQILEQV-NH2
SMILES: CC[C@H](C)[C@H](NC(C)=O)C(=O)N[C@H](C(=O)N[C@@H](CC(C)C)C(=O)N[C@@H](CO)C(=O)N[C@@H](CC(C)C)C(=O)N[C@@H](CC(=O)O)C(=O)N[C@@H](C(=O)N1CCC[C@H]1C(=O)N[C@H](C(=O)N[C@@H](CCCCN)C(=O)N[C@@H](CC(C)C)C(=O)N[C@@H](CCCCNC(=O)CC[C@H](NC(=O)CCCCCCCCCCCCCCC(=O)O)C(=O)O)C(=O)N[C@@H](CCC(N)=O)C(=O)N[C@H](C(=O)N[C@@H](CC(C)C)C(=O)N[C@@H](CC(C)C)C(=O)N[C@@H](CCCCN)C(=O)N[C@@H](CCC(N)=O)C(=O)N[C@@H](CCC(=O)O)C(=O)N[C@@H](CCCNC(=N)N)C(=O)N[C@@H](CCC(N)=O)C(=O)N[C@@H](CCCCN)C(=O)N[C@@H](CCCCN)C(=O)N[C@@H](CCC(N)=O)C(=O)N[C@@H](CCCNC(=N)N)C(=O)N[C@@H](CCC(=O)O)C(=O)N[C@@H](CCC(N)=O)C(=O)N[C@@H](C)C(=O)N[C@@H](CCC(=O)O)C(=O)N[C@@H](CCCCN)C(=O)N[C@@H](CC(N)=O)C(=O)N[C@@H](CCCCN)C(=O)N[C@@H](CCC(N)=O)C(=O)N[C@H](C(=O)N[C@@H](CC(C)C)C(=O)N[C@@H](CCC(=O)O)C(=O)N[C@@H](CCC(N)=O)C(=O)N[C@H](C(N)=O)C(C)C)[C@@H](C)CC)[C@@H](C)CC)[C@@H](C)CC)C(C)C)C(C)C
EC50 (CRF1R receptor): 95400 pM
Emax (% I) (CRF1R receptor): 63%
EC50 [nM] (cAMP) [1]: 0.07 nM

Binder: Pentanoyl-VLSLD[dV]PIK[αMeL]K([AEEA-AEEA-γGlu-C18 diacid])KILLEQEKQKKQREQAETN[Aib]QILAQV-NH2 [SEQ ID NO 123]
Emax (% I) (CRF1R receptor): 14%
EC50 [nM] (cAMP) [1]: 0.7 nM

B2: SEQ ID NO 110 (peptide)
peptide: Ac-IVLSLD[dV]PIK[αMeL]K([AEEA-AEEA-γGlu-C18 diacid])KILLEQEKQKKQREQAETN[Aib]QILAQV-NH2
SMILES: CC[C@H](C)[C@H](NC(C)=O)C(=O)N[C@H](C(=O)N[C@@H](CC(C)C)C(=O)N[C@@H](CO)C(=O)N[C@@H](CC(C)C)C(=O)N[C@@H](CC(=O)O)C(=O)N[C@@H](C(=O)N1CCC[C@H]1C(=O)N[C@H](C(=O)N[C@@H](CCCCN)C(=O)N[C@@](C)(CC(C)C)C(=O)N[C@@H](CCCCNC(=O)COCCOCCNC(=O)COCCOCCNC(=O)CC[C@H](NC(=O)CCCCCCCCCCCCCCCCC(=O)O)C(=O)O)C(=O)N[C@@H](CCCCN)C(=O)N[C@H](C(=O)N[C@@H](CC(C)C)C(=O)N[C@@H](CC(C)C)C(=O)N[C@@H](CCC(=O)O)C(=O)N[C@@H](CCC(N)=O)C(=O)N[C@@H](CCC(=O)O)C(=O)N[C@@H](CCCCN)C(=O)N[C@@H](CCC(N)=O)C(=O)N[C@@H](CCCCN)C(=O)N[C@@H](CCCCN)C(=O)N[C@@H](CCC(N)=O)C(=O)N[C@@H](CCCNC(=N)N)C(=O)N[C@@H](CCC(=O)O)C(=O)N[C@@H](CCC(N)=O)C(=O)N[C@@H](C)C(=O)N[C@@H](CCC(=O)O)C(=O)N[C@H](C(=O)N[C@@H](CC(N)=O)C(=O)NC(C)(C)C(=O)N[C@@H](CCC(N)=O)C(=O)N[C@H](C(=O)N[C@@H](CC(C)C)C(=O)N[C@@H](C)C(=O)N[C@@H](CCC(N)=O)C(=O)N[C@H](C(N)=O)C(C)C)[C@@H](C)CC)[C@@H](C)O)[C@@H](C)CC)[C@@H](C)CC)C(C)C)C(C)C
Emax (% I) (CRF1R receptor): 9%
EC50 [nM] (cAMP) [1]: 0.3 nM

B4: SEQ ID NO 119 (peptide)
peptide: [NMeI]VLSLD[dV]PIK[αMeL]K([AEEA-AEEA-γGlu-C18 diacid])KILLEQEKQKKQREQAETN[Aib]QILAQV-NH2
modifications: N-terminus assumed
SMILES: CC[C@H](C)[C@H](NC)C(=O)N[C@H](C(=O)N[C@@H](CC(C)C)C(=O)N[C@@H](CO)C(=O)N[C@@H](CC(C)C)C(=O)N[C@@H](CC(=O)O)C(=O)N[C@@H](C(=O)N1CCC[C@H]1C(=O)N[C@H](C(=O)N[C@@H](CCCCN)C(=O)N[C@@](C)(CC(C)C)C(=O)N[C@@H](CCCCNC(=O)COCCOCCNC(=O)COCCOCCNC(=O)CC[C@H](NC(=O)CCCCCCCCCCCCCCCCC(=O)O)C(=O)O)C(=O)N[C@@H](CCCCN)C(=O)N[C@H](C(=O)N[C@@H](CC(C)C)C(=O)N[C@@H](CC(C)C)C(=O)N[C@@H](CCC(=O)O)C(=O)N[C@@H](CCC(N)=O)C(=O)N[C@@H](CCC(=O)O)C(=O)N[C@@H](CCCCN)C(=O)N[C@@H](CCC(N)=O)C(=O)N[C@@H](CCCCN)C(=O)N[C@@H](CCCCN)C(=O)N[C@@H](CCC(N)=O)C(=O)N[C@@H](CCCNC(=N)N)C(=O)N[C@@H](CCC(=O)O)C(=O)N[C@@H](CCC(N)=O)C(=O)N[C@@H](C)C(=O)N[C@@H](CCC(=O)O)C(=O)N[C@H](C(=O)N[C@@H](CC(N)=O)C(=O)NC(C)(C)C(=O)N[C@@H](CCC(N)=O)C(=O)N[C@H](C(=O)N[C@@H](CC(C)C)C(=O)N[C@@H](C)C(=O)N[C@@H](CCC(N)=O)C(=O)N[C@H](C(N)=O)C(C)C)[C@@H](C)CC)[C@@H](C)O)[C@@H](C)CC)[C@@H](C)CC)C(C)C)C(C)C
Emax (% I) (CRF1R receptor): 5%
EC50 [nM] (cAMP) [1]: 1.62 nM

Next, values leading:

Emax (% I) (CRF1R receptor): 18%
EC50 [nM] (cAMP) [1]: 0.15 nM
B3: SEQ ID NO 125 (peptide)
peptide: Ac-IVLSLD[dV]PIKLK([γGlu-C18 diacid])KILLEQEKQKKQREQAETN[Aib]QILAQV-NH2
SMILES: CC[C@H](C)[C@H](NC(C)=O)C(=O)N[C@H](C(=O)N[C@@H](CC(C)C)C(=O)N[C@@H](CO)C(=O)N[C@@H](CC(C)C)C(=O)N[C@@H](CC(=O)O)C(=O)N[C@@H](C(=O)N1CCC[C@H]1C(=O)N[C@H](C(=O)N[C@@H](CCCCN)C(=O)N[C@@H](CC(C)C)C(=O)N[C@@H](CCCCNC(=O)CC[C@H](NC(=O)CCCCCCCCCCCCCCCCC(=O)O)C(=O)O)C(=O)N[C@@H](CCCCN)C(=O)N[C@H](C(=O)N[C@@H](CC(C)C)C(=O)N[C@@H](CC(C)C)C(=O)N[C@@H](CCC(=O)O)C(=O)N[C@@H](CCC(N)=O)C(=O)N[C@@H](CCC(=O)O)C(=O)N[C@@H](CCCCN)C(=O)N[C@@H](CCC(N)=O)C(=O)N[C@@H](CCCCN)C(=O)N[C@@H](CCCCN)C(=O)N[C@@H](CCC(N)=O)C(=O)N[C@@H](CCCNC(=N)N)C(=O)N[C@@H](CCC(=O)O)C(=O)N[C@@H](CCC(N)=O)C(=O)N[C@@H](C)C(=O)N[C@@H](CCC(=O)O)C(=O)N[C@H](C(=O)N[C@@H](CC(N)=O)C(=O)NC(C)(C)C(=O)N[C@@H](CCC(N)=O)C(=O)N[C@H](C(=O)N[C@@H](CC(C)C)C(=O)N[C@@H](C)C(=O)N[C@@H](CCC(N)=O)C(=O)N[C@H](C(N)=O)C(C)C)[C@@H](C)CC)[C@@H](C)O)[C@@H](C)CC)[C@@H](C)CC)C(C)C)C(C)C

Emax (% I) (CRF1R receptor): 14%
EC50 [nM] (cAMP) [1]: 0.38 nM
Binder: Pentanoyl-VLSLD[dV]PIK[αMeL]K([AEEA-AEEA-γGlu-C18 diacid])KILLEQEKQKKQREQAETNVQILAQV-NH2 [SEQ ID NO 124]
